Results: the nanobody polyreactivity screen of Harvey et al. (2022)

Experiment: yeast display, Sf9 membrane polyspecificity reagent, FACS + sequencing; frameworks hold sequencing errors
In short: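 Synthetic nanobody libraries on Saccharomyces cerevisiae BJ5465 were galactose-induced for 36–48 hours, stained 1 hour at 4 °C with 10% biotinylated, detergent-solubilized Sf9 membrane reagent and enriched on streptavidin microbeads. FACS then separated cells into low and high (top ~1%) gates by anti-HA (expression) and streptavidin (reagent binding) fluorescence. Genes were colony-PCR amplified, MiSeq 2 × 250 sequenced and CDR-length filtered. A clone's polyreactivity label is that of its gate of origin.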

| Sequence | polyreactivity (PSR sort gate) |
| --- | --- |
| QVQLVESGGGLVQAGGSLRLSCAASGSTFNLYAMGWYRQAPGKERELVAAISGNGDRTYYADSVKGRFTISRDNAKNTVYLQMNSLKPEDTAVYYCAAKYYGWGQGTQVTVSS | high polyreactivity |
| QVQLVESGGGLVQAGGSLRLSCAASGSTFNRNAMGWYRHAPGKERELVATISTGGVSTYYADSVKGRFTISRDNAKNTVYLQMNSLKPEDTAVYYCAKRTVYLSNLDYWGQGTQVTVSS | low polyreactivity |
| QVQLVESGGGLVQAGGSLRLSCAASGFTFGLYTMGWYRQAPGKERELVAAITSSGARTYYADSVKGRFTISRDNAKNTVNLQMNSLKPEDTAVYYCNAGKRGSTYYYWGQGTQVTVSS | high polyreactivity |
| QVQLVESGGGLVQAGGSLRLSCAASGRIFSSNAMGWYRQAPGKEREFVAAISWRTGSTYYADSVKGRFTISRDNAKNTVYLQMNSLKPEDTAVYYCNKRTGSYGYPYYYWGQGTQVTVSS | high polyreactivity |
| QVQLVESGVGLVQAGGSHRLSCAASGRTLWYYAIGWYRQAPGKERELVASIRRRTGSTYYAESVKGRFTISRDNAKNTVYLQLNSLKPEDTAVYYCAAKGFLRNGYWGQGTQVTVSS | high polyreactivity |
| QVQIVESGGGLFQAGGSLRLSCAASGRIFDPYSMGWYRQAPGKERELVASISWSGGRTYYADSVKGRFTISRDNAKNTVYLQMNSLKPEDTAVYYCARRFYKGTSKTNLFDFWGQVTQVTVSS | high polyreactivity |
| QVQLVESGGGLVQAGGSLRLSCAASGFYAMGWYIQAPGKERELVAAIRYRGGSTYYADSVKGRFTFSRDNAKNTVDLQMNSLKPEDTAVYYCAASTGPDRQFDSWGQGTQVTVSS | low polyreactivity |
| QVQLVESGGGLVQAGGSLRLSCAASGRTFANNAMGWYRQAPGKERELVAAISFSTVSTYYADSVKGRFTISRDNAKYTVYLQMNSLKPEDTAVYYCAARRLGYYRKVKELVYWGQGTQVTVSS | high polyreactivity |
| QVQLVESGVALVQAGGSLRLSCAASGSILYPYAMGWYRQAPGKERELVAAITKTDGSTYYADSVKWRFTISRDNAKNTVYLQMNSLTPEDTAVYCCNAKWTLRWYFPYWSEYDYWGQGTQVTVSS | low polyreactivity |
| QVQLVESGGGLVQAGGSLRLSCAASGFIFAIYAMGWYRQAPGKERELVAAINSDGSTYYADSVKGRFTISRDNAKNTVYLQMNSLKPEDTAVYYCNAETAGHDMDYWGQGTQVTVSS | low polyreactivity |
| QVQLVESAAGLVQAGASHRLSCAASARTFTVNAMGWYRQAPGKERELVAAISGRSGRTSYADSVKGRFTISRDNAKNTVYLQMNSLKQEVTAVYYCAADYYFYFTYPARFGYWGLGTQVTVSS | high polyreactivity |
| QVQLVESGGGLVQAGGSLRLSCAASGSIIYFYAMGWYRPAPGKERELVAAISITSASTYYADSVKGRFTISRDNAKNTVYLQMNSLKPEDTAVYYCAAEYYYVDWIYDYWGQGTQVTVSS | high polyreactivity |
| QVQLVESGGGLVQAGGSLRLSCDDSGGIFQENAMGWYTQAPGKERELVATSTRSTGSTYYADSVKGRFTISRDTAKNTVYLQMNSLKPEDTAVYYCAARRLSQYYRYAYKYDYWGQVTQVTVSS | high polyreactivity |
| QVQHVESGGGLVQAGGSLRLSCAASGFTFFGDYAMGWYRQAPGKERELVAGISVSGGSTYYADSVKGRFTISRDNAKNSVYLQMNSLKPEDTGVYYCAARYSLKGGRYVYWGQGTQVTVSS | high polyreactivity |
| QFQLVESGGGLVQAGCSLRLSCAASGGTFGLYAMGWYRQAPGKERELVAANTWSDSSTYYADSVKGRFTISRDNAKNTVYLQMNSLKPEDNAVYYCAADYGDADTWWPSAEYHSGRDYWGQGTQVTVSS | low polyreactivity |
| QVQLVESGGGLVQAGGSLRLSCAASGSIFSSNTMGWYRQAHGKERELVAAITVSGGRTYYADSVKGRFTISRDNAKNTVYLQMNSLKPEDTAVYYCATRWFGNSYSYRAYDYWGQGTQVTVSS | high polyreactivity |

| Sequence | polyreactivity (PSR sort gate) |
| --- | --- |
| QVQLVESGGGLVQAGGSLRLSCAASGLIIYRYGMGWYRQAPGKERELVAAISYSGSSTYYADSVKGRFTISRDNAKNTVYLQMISLKPEDTAVYYCAAQSTRPYPGRYYYWGQGTQVTVSS | high polyreactivity |
| QVQLVESGGGLVQAGGSLRLSCAASGIIFANYTMGWYRKAPGKERELVAAISWSGDSTYYADSVKGRFTISRDNAKNTVYLQMNSLKPEDTAVYYCATVNIGYRVWMNYWGQGTQVTVSS | low polyreactivity |
| QVQLVESGRGLDQAGGSLRLICYASGRTFLYNAMGWFRQSPGKERELVAAIRWSGGTTYYADSVKGRFTISRDNSKNNVYLQMNSLKPEDTAIYYCAARWGQYYGGVRYGYWGQGTQVTVSS | high polyreactivity |
| QGQLVESGGGIVQAGGSLRLSCSASGLTYGTNAKGLYRQAPRQERELVAAISRSGGTTYYADSVKWRFTISRDNAKNTVDLQMNSLKPEDTAVYYCATRPYSPWRHYFWGQGTQVTVSS | high polyreactivity |
| QVQLVESGGGLVQAGGSLPLSCAASGFTFYRYTMVWYRQAPGKERELVAAISRGGRTYYADSVKGRFTISRDNAKNTDYLQMNSLKPEDTAVYYCNARYPSADDWGQGTQVTVSS | high polyreactivity |
| QVQLVESCGGLVQAGGSLRLSCAASGFTFYYYVMGWYRQAPGQERELVAAISRSGGNTYYADSVKGRFTISRDNAKNTVYLQMNRLKPEDTAVYYCNAVQYYPVYYWGQGTQVTVSS | high polyreactivity |
| QVQLVESGGGLVQAGGSLRLSCAASGSIFKYYAMGWYRQAPGKERELVAAISTGGTTNYADSVKGRFTISRDNAKKTVYLQMNSLKPDDTAVYYCNRDFLVRSRYKYYYWGQGTQVTVSS | low polyreactivity |
| QVQLVESGGGLVQAGGSLRLSCAASGRIFRVYTMGWYRQAPGKERELVAGITWDGGGTYYADSVKGRFTISRDNAKNTVYLQMNSLKPEDTAVYYCNAVVQGFYLAWLYTLDSWGQGTQVTVSS | low polyreactivity |
| QVQLVESGGGLVQAGGSLRLSCAASGYTFRAYAMGWYRQAPGKEREYVAAISRSGGSTYYADSVKGRFTISRDNAKNTVYLQMNSLKPEDTAVYYCNKVYRWAGYDYWGQGSQVTVSS | high polyreactivity |
| QVQLVESGGGLVQAGGSLRLSCAASGLIFRWYAMGWYRQAPGKERELVAAISRRGGNTYYADSVKGRFTISRDNAKNTVYLQMNSLKPEDTAVYYCAASPIRSQGNDYWGQGTQVNVSS | high polyreactivity |
| QVQLVESGGGLVQAGGSLRLSCAASGSTFRYYAMGWSRQAPGKERELVAAISRSGTSTYYADSVKGRFTISRDNAKNTVYLQMNSLKPEDTAVYYCAADWHSKIGKGYDYWGQGTQVTVSS | high polyreactivity |
| QVQLVESGGGLVQAGGSLRLSCAASGSIFGWNAMGWYRQAPGKERELVAAISSGGSTYYADSVKGRFTISRDNAKNTVSLQMNSLKPEDTAVYYCNAYFQYYDYWGQGTQVTVSS | low polyreactivity |
| QVQLVESGGGLVQAGGSLRLSCAASGSIFWHNAMGWYRQAPGTEREFVAAISGSGGSTYYADSVKGRFTISRDNAKNTVYLQMISLKPEDTAVYYCAADIYYWSFYYSRYDYWGQGTQVTVSS | high polyreactivity |
| QVQLVESGGGLVQAGGSLRLSCAASGYIFVYNSMGWYRPAPGKERELVAVINYSGSSTYYADSVKGRFPISRDNAKNTVYLQMNSLKPEDTAVYYCNALRRESLEDEYWGQGTQVTVSS | high polyreactivity |
| QVQLEESGGGLVQAGGSLRISCAASGSTFWRYTMGWYRQEPGKERELVAAISWSGDGTYYADSVKGRFTISRDNAKNTVYLQMNSLKPEDTAVYYCAAEVYYANGYDYDYWGQGTQVTVSS | low polyreactivity |
| QVQLVESGGGLVQAGGSLRLSCAASGITIRPYTMGWYRQAPGKERELVARISRRGGSTYYADSVKGRFTISRDNAKNTVYLQMNSLKPEDTAVYYCATRSRAHISPYDYWGQGTQVTVSS | high polyreactivity |
